Source: paper PMC5577263

Target: recombinant mouse α-synuclein amyloid fibrils (mouse) (UniProt O55042)
Test: SPR

“recombinant full-length mouse PrP MoPrP(23-231) (from UniProt P04925 23-231) (natural protein)” showed a KD, first of two (ratio of one of two koff values to kon) of 3.1 nM and a KD, second of two (ratio of one of two koff values to kon) of 36.5 nM.
